According to patent US5911991A, “Malarial binding site in duffy blood group protein” (New York Blood Center, Inc., priority 1996, dated 1999):
Where “and” joins values, the source holds several entries; their conditions need not be identical. Equal entries are not always repeated. Where two headings read alike, the source gives them in different places. Ends that are not written are not given here.

Experiments:
[1] = system: Region II of the P. knowlesi Duffy-binding ligand (α); test: MGSA inhibition of rhesus erythrocyte binding, P. knowlesi α Region II; type: cell-based, Plasmodium knowlesi
[2] = target: P. knowlesi β Region II; test: MGSA inhibition of N-glycanase-treated rhesus erythrocyte binding, P. knowlesi β Region II; type: cell-based, Plasmodium knowlesi; conditions: rhesus erythrocytes, read-out: 50% Inhibition Conc.
[3] = system: Region II of the P. vivax Duffy antigen binding protein; test: MGSA inhibition of N-glycanase-treated rhesus erythrocyte binding, P. vivax Region II; type: cell-based, Plasmodium vivax
Experimental: Blood was collected in 10% citrate/phosphate/dextrose (CPD) (Baxter, Deerfield, Ill.) and stored at 4° C. for up to four weeks. Standard blood banking methods using two antisera (anti-Fya and anti-Fyb) were used to determine the Duffy phenotypes. Duffy positive erythrocytes used in the binding assays had the Fy(a+b+) phenotype. Erythrocytes were washed three times in RPMI 1640 (GIBCO BRL) and resuspended to a hematocrit of 10% in RPMI 1640 for use in the erythrocyte binding assays. Washed human and rhesus erythrocytes were treated with neuraminidase as described earlier (Comus et al. 1985). Human and rhesus erythrocytes were deglycosylated with the N-glycanase, peptide-N-glycosidase F from Flavobacterium meningosepticum (Oxford Glycosystems). Washed erythrocytes (100 μL) were incubated with mixing for 1 h at 37° C. in 500 μL of PBS containing 10 units of N-glycanase and reaction buffer supplied by the manufacturer. The erythrocytes were washed extensively in PBS to remove the enzyme and stop the deglycosylation.
To study the efficacy of the chemokine MGSA in inhibiting binding, erythrocytes were preincubated in media containing different concentrations of MGSA (0 to 1000 nM) for 1 h at room temperature before they were used in erythrocyte binding assays as described earlier (Su et al. 1995). […]

[4] = system: P. vivax Region II; conditions: previously shown (Horuk et al. 1993; Chitnis et al. 1994); cited from earlier work
[5] = target: T1, Duffy blood group antigen (Homo sapiens, UniProt Q16570); conditions: previously shown (Horuk et al. 1993; Chitnis et al. 1994); cited from earlier work
T1 sequence (Q16570 1-336): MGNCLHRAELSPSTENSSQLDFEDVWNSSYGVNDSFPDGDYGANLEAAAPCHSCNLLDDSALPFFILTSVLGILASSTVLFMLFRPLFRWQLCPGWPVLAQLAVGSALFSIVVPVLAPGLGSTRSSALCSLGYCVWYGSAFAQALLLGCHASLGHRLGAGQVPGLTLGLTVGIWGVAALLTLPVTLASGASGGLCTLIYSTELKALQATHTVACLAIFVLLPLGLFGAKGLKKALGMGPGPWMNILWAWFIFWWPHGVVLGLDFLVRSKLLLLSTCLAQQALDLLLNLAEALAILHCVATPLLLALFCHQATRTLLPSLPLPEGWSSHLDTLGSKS

[6] = target: T2, Region II of P. falciparum EBA-175 (Plasmodium falciparum, UniProt P19214); test: cell-based
T2 construct: expressed in transfected cells; host or cells: Cos7 cells (ATCC CRL 1651)

[7] = system: Region II of the P. knowlesi Duffy antigen binding protein (α); conditions: read-out: concentration for 50% inhibition of erythrocyte binding, human erythrocytes
Source text: To study the ability of peptides from the Duffy antigen to inhibit erythrocyte binding, a binding assay using the transfected Cos cells was employed, based on a method previously described (Chitnis et al. 1994). This method measures interaction between the malarial Duffy antigen binding ligand expressed by the Cos cells and Duffy protein on erythrocytes. The ability of an analyte to interfere with the cellular binding can be quantitated by comparing the number of Cos cells surrounded by rosettes of erythrocytes in the control versus the number of rosettes formed in the presence of the analyte.
Transfected Cos cells were preincubated for 1 h in a 5% CO2 incubator at 37° C. in 0.9 mL of complete Dulbecco's modified Eagle's medium (cDMEM) containing a series of concentrations (0 to 100 μM) of the peptides. One hundred microliters of human or rhesus erythrocytes at a hematocrit of 10% were added to wells containing the peptides and allowed to bind over 2 h at 37° C. in a 5% CO2 incubator. Non-adherenterythrocytes were removed by washing the Cos7 cells then with PBS. The numbers of rosettes were scored in 20 fields of view at a magnification of 40× using an inverted microscope. Inhibition curves were drawn for three independent experiments and used to determine concentrations of the peptides required to achieve 50% inhibition. […]

[8] = target: rhesus Duffy blood group antigen on normal rhesus erythrocytes (rhesus monkey) (UniProt Q95LF2)
[9] = target: Region II of the P. knowlesi β protein expressed on the Cos7 cell surface (Plasmodium knowlesi; Herpes simplex virus) (UniProt P50493)
[10] = target: deglycosylated rhesus Duffy blood group antigen on N-glycanase-treated rhesus erythrocytes (rhesus monkey) (UniProt Q95LF2)
[11] = target: T3, Region II of the P. knowlesi Duffy antigen binding protein (alpha) expressed on the Cos7 cell surface (Plasmodium knowlesi; Herpes simplex …, UniProt P22545)
T3 sequence: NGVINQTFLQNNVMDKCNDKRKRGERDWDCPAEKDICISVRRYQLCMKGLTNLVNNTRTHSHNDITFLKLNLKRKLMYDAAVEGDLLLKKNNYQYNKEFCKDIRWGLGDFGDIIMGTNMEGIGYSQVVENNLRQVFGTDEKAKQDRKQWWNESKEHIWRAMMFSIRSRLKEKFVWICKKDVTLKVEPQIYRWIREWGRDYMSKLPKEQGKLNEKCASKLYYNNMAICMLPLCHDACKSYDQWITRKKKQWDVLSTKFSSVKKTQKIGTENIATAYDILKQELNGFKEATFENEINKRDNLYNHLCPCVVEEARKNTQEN

[12] = target: Region II of the P. vivax Duffy antigen-binding protein (DABP) expressed on the Cos7 cell surface (Plasmodium vivax; Herpes simplex virus, UniProt P22290)
[13] = target: T3, Region II of the P. knowlesi Duffy …; remark: listed apart in the source
[14] = target: Region II of the P. knowlesi β protein expressed on the Cos7 cell surface (Plasmodium knowlesi; Herpes simplex …, UniProt P50493)
[15] = system: Rubinstein anti-Fy6 antibody; test: Binding of the Rubinstein anti-Fy6 antibody to Duffy peptides (ELISA); parameters: species or system murine

Region II of the P. vivax Duffy antigen binding protein, sequence (P22290 211-521): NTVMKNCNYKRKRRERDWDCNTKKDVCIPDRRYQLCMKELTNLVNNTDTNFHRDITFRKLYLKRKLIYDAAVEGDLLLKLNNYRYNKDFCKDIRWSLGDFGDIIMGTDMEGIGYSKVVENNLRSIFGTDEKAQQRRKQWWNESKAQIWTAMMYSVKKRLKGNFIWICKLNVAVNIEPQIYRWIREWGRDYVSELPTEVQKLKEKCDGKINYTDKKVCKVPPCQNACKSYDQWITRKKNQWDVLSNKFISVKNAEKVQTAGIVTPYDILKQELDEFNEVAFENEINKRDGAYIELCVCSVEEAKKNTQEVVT
P. vivax Region II, sequence (P22290 211-521): as above

melanoma growth stimulating activity [MGSA]
inhibition of binding of rhesus erythrocytes to Cos cells expressing Region II of P. knowlesi α ([1]; in words): inhibit | IC50 ([1]; rhesus erythrocytes, treatment none, P. knowlesi α, read-out: 50% Inhibition Conc.): 0.005 µM | IC50 [2]: > 1 µM | inhibition of binding of N-glycanase-treated rhesus erythrocytes to P. vivax Region II ([3]; in words, 50% inhibition at nanomolar concentrations): inhibits | IC50 ([3]; rhesus erythrocytes, N-glycanase treated, P. vivax DABP, separate experiments, read-out: 50% Inhibition Conc.): 0.005 µM and 0.006 µM | inhibition of binding of P. vivax Region II to Duffy-positive human erythrocytes [4]: inhibit | binding to the Duffy blood group antigen [5]: binds

AELSPSTQNSSQLNSDLWNFSYDGNDSFPDVDYD [RHPEP34]
IC50 [6]: > 100 µM

AELSPSTENSSQLDFEDVWNSSYGVNDSFPDGDYD [HPEP35]
IC50 [6]: > 100 µM | IC50 [7]: 4.9 ± 2.3 µM

melanoma growth stimulating activity (MGSA) (from UniProt P09341) (ligand)
IC50 [8]: 0.005 µM | IC50 [9]: > 1 µM | IC50 [10]: 0.005 µM and 0.006 µM

AELSPSTENSSQLDFEDVWNSSYGVNDSFPDGDYD [HPEP35]
IC50 [11]: 4.9 µM | IC50 [12]: 2.9 µM

AELSPSTQNSSQLNSDLWNFSYDGNDSFPDVDYD [RHPEP34]
IC50 [12]: 2.1 µM | IC50 [13]: 5.5 µM | IC50 [14]: > 100 µM

B1: MASSGYVLQAELSPSTENSSQLDFEDVWNSSYGVNDSFPDGDYDANLEAAAPCHSCNLLDDSALPF (peptide)
chain: MASSGYVLQAELSPSTENSSQLDFEDVWNSSYGVNDSFPDGDYDANLEAAAPCHSCNLLDDSALPF
notes: N-terminal peptide of gp-Fyα containing the HPEP35 domain
binding in an ELISA assay (Rubinstein antibody) [15]: bind
